Assay results taken from paper PMC5869772, “Quantitative profiling of BATF family proteins/JUNB/IRF hetero-trimers using Spec-seq” (BMC Molecular Biology, 2018).

B1: BATF–JUNB hetero-dimer (complex, human)
chain 1: MPHSSDSSDSSFSRSPPPGKQDSSDDVRRVQRREKNRIAAQKSRQRQTQKADTLHLESEDLEKQNAALRKEIKQLTEELKYFTSVLNSHEPLCSVLAASTPSPPEVVYSAHAFHQPHVSSPRFQP
chain 2: KMNHVTPPNVSLGATGGPPAGPGGVYAGPEPPPVYTNLSSYSPASASSGGAGAAVGTGSSYPTTTISYLPHAPPFAGGHPAQLGLGRGASTFKEEPQTVPEARSRDATPPVSPINMEDQERIKVERKRLRNRLAATKCRKRKLERIARLEDKVKTLKAENAGLSSTAGLLREQVAQLKQKVMTHVSNGCQLLLGVKGHAF
notes: BATF, human, full length; Heterodimer formed by co-expression before purification; also called BATFx–JUNB; source: SHuffle T7 Express E. coli, co-expressed, purified (Ni-NTA agarose), mCherry cleaved off with ProTEV Plus; not shown: mCherry, N-terminal, cleaved
B2: BATF2–JUNB hetero-dimer (complex, human)
chain 1: MHLCGGNGLLTQTDPKEQQRQLKKQKNRAAAQRSRQKHTDKADALHQQHESLEKDNLALRKEIQSLQAELAWWSRTLHVHERLCPMDCASCSAPGLLGCWDQAEGLLGPGPQGQHGCREQLELFQTPGSCYPAQPLSPGPQP
chain 2: B1 chain 2
notes: Heterodimer formed by co-expression before purification; also called BATFx–JUNB; source: SHuffle T7 Express E. coli, co-expressed, purified (Ni-NTA agarose), mCherry cleaved off with ProTEV Plus; not shown: mCherry, N-terminal, cleaved

What was measured:
[1] = test system: BATF3;JUNB;IRF4 (human;human;human); assay: Spec-seq (EMSA); conditions: reference; 100 nM BATFx-JUNB, 150 nM IRF, 1 uM dsDNA library; 50 mM K acetate, 20 mM Tris-acetate, 10 mM Mg acetate, 100 ug/ml BSA, pH 7.9 (25 C), 10% glycerol; 30 min on …
[2] = test system: BATF2 (bZIP);JUNB;IRF4 (human;human;human); assay: Spec-seq (EMSA); conditions: reference; 100 nM BATFx-JUNB, 150 nM IRF, 1 uM dsDNA library; 50 mM K acetate, 20 mM Tris-acetate, 10 mM Mg acetate, 100 ug/ml BSA, pH 7.9 (25 C), 10% glycerol; 30 min on …
[3] = test system: BATF3;JUNB;IRF8 (human;human;mouse); assay: Spec-seq (EMSA); conditions: reference; 100 nM BATFx-JUNB, 150 nM IRF, 1 uM dsDNA library; 50 mM K acetate, 20 mM Tris-acetate, 10 mM Mg acetate, 100 ug/ml BSA, pH 7.9 (25 C), 10% glycerol; 30 min on …
[4] = test system: BATF;JUNB (human;human); assay: Spec-seq (EMSA); conditions: no IRF; 100 nM BATFx-JUNB, 150 nM IRF, 1 uM dsDNA library; 50 mM K acetate, 20 mM Tris-acetate, 10 mM Mg acetate, 100 ug/ml BSA, pH 7.9 (25 C), 10% glycerol; 30 min on …
[5] = test system: BATF;JUNB;IRF4 (human;human;human); assay: Spec-seq (EMSA); conditions: reference; 100 nM BATFx-JUNB, 150 nM IRF, 1 uM dsDNA library; 50 mM K acetate, 20 mM Tris-acetate, 10 mM Mg acetate, 100 ug/ml BSA, pH 7.9 (25 C), 10% glycerol; 30 min on …
[6] = test system: BATF2 (bZIP);JUNB (human;human); assay: Spec-seq (EMSA); conditions: 100 nM BATFx-JUNB, 150 nM IRF, 1 uM dsDNA library, 50 mM K acetate, 20 mM Tris-acetate, 10 mM Mg acetate, 100 ug/ml BSA, pH 7.9 (25 C), 10% glycerol, 30 min on …
[7] = test system: BATF;JUNB;IRF8 (human;human;mouse); assay: Spec-seq (EMSA); conditions: reference; 100 nM BATFx-JUNB, 150 nM IRF, 1 uM dsDNA library; 50 mM K acetate, 20 mM Tris-acetate, 10 mM Mg acetate, 100 ug/ml BSA, pH 7.9 (25 C), 10% glycerol; 30 min on …
[8] = test system: BATF2 (bZIP);JUNB;IRF8 (human;human;mouse); assay: Spec-seq (EMSA); conditions: reference; 100 nM BATFx-JUNB, 150 nM IRF, 1 uM dsDNA library; 50 mM K acetate, 20 mM Tris-acetate, 10 mM Mg acetate, 100 ug/ml BSA, pH 7.9 (25 C), 10% glycerol; 30 min on …
[9] = test system: BATF3;JUNB (human;human); assay: Spec-seq (EMSA); conditions: no IRF; 100 nM BATFx-JUNB, 150 nM IRF, 1 uM dsDNA library; 50 mM K acetate, 20 mM Tris-acetate, 10 mM Mg acetate, 100 ug/ml BSA, pH 7.9 (25 C), 10% glycerol; 30 min on …
[10] = target: T1, IRF4 (full length human) (human, UniProt Q15306 1-451); assay: native gel or EMSA; complex formed on a dsDNA library: 100 nM BATFx-JUNB heterodimer, 150 nM IRF protein, 1 uM dsDNA library in 1x NEB Cutsmart buffer (pH 7.9) with 10% glycerol, 30 min on ice; native 9% PAGE in Tris/Glycine at 4 °C; conditions: both partners purified
T1 construct: IRF4 (interferon regulatory factor 4), human, full length; also called IRFx; source: E. coli BL21(DE3), purified (Strep-Tactin Superflow), strep-tag cleaved off by thrombin; not shown: Strep-tag, N-terminal, cleaved
T1 sequence (looked up): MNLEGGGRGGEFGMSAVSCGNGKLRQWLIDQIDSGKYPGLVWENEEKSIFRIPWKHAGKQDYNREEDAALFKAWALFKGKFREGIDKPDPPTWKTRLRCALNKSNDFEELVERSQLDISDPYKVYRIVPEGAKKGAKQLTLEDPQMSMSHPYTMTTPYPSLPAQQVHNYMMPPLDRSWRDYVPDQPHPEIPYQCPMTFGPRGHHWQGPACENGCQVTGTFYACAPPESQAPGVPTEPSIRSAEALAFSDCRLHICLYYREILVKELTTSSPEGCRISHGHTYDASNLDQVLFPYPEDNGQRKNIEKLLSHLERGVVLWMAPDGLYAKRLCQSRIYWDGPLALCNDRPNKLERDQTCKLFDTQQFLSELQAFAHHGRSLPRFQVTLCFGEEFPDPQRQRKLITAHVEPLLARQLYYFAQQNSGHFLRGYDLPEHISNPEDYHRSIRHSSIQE

[11] = target: T2, IRF8 (full length mouse) (mouse, UniProt P23611 1-424); assay: as above; conditions: both partners purified
T2 construct: IRF8 (interferon regulatory factor 8), mouse, full length; also called IRFx; source: E. coli BL21(DE3), purified (Strep-Tactin Superflow), strep-tag cleaved off by thrombin; not shown: Strep-tag, N-terminal, cleaved
T2 sequence (looked up): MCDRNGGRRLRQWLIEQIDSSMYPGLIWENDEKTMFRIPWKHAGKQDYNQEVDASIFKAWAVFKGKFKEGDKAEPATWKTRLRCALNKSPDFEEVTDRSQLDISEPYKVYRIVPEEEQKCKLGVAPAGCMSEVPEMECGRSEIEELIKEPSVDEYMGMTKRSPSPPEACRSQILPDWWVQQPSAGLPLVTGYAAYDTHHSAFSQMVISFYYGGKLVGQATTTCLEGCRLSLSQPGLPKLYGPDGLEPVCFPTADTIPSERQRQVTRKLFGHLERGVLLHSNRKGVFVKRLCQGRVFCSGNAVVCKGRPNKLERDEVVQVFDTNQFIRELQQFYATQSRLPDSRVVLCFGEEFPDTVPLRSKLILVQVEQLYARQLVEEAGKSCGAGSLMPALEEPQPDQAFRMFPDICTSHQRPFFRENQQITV

Row | Molecule | binding signal (kT (-ln bound/unbound)) [4] | binding signal (kT (-ln bound/unbound)) [6] | binding result [10] | binding result [11] | other results
1 | TRE-0sp (TGAGTCAT) | -1.05 | -0.903 | – | – | binding signal (kT vs TRE-0sp) [1]: 0; binding signal (kT vs TRE-0sp) [2]: 0; binding signal (kT vs TRE-0sp) [3]: 0; binding signal (kT vs TRE-0sp) [5]: 0; binding signal (kT vs TRE-0sp) [7]: 0; binding signal (kT vs TRE-0sp) [8]: 0
2 | TRE-1sp (ATGAGTCA) | -1.25 | -1.01 | – | – | –
3 | CRE (TGACGTCA) | -1.05 | – | – | – | binding signal (kT (-ln bound/unbound)) ([6]; no IRF): -1.32; binding signal (kT (-ln bound/unbound)) [9]: -1.75
4 | B1 | – | – | binds | binds | –
5 | B2 | – | – | binds | binds | –
